Measurements: US20230174596A1 (published 2023)
Positions count from the first letter of the chain named. Names and notes keep the numbering of the source. Read-outs that look alike come from different tables or passages of the source.

Experiments:
[1] = target: LRP6 E1E2 protein (human) (UniProt O75581); assay: spot phage ELISA
[2] = target: T1, hVEGF-A (8-109) (human, UniProt P15692 214-315); assay: spot phage ELISA
T1 construct: residue numbers count on mature VEGF-A; dimer
T1 sequence (looked up): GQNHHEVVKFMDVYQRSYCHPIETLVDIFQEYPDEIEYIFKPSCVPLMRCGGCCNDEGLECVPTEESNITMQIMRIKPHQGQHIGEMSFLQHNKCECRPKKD

[3] = target: T2, human VEGF-A (human, UniProt P15692-4 34-135, limits assumed); assay: cell-based or functional assay
T2 sequence (looked up): T1 sequence (looked up)

[4] = target: T3, mVEGF (mouse, UniProt Q00731-2 27-190, limits assumed); assay: cell-based or functional assay
T3 sequence (looked up): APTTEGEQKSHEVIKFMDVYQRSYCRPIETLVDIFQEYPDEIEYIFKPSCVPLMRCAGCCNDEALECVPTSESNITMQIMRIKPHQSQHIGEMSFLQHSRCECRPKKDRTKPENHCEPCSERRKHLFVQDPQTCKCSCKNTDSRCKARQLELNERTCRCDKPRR

[5] = target: T4, rat VEGF-A (rat, UniProt P16612-2 27-190, limits assumed); assay: cell-based or functional assay
T4 sequence (looked up): T3 sequence (looked up) with S10A, I14V, I75V

[6] = target: T5, hVEGF-A K48A (human, UniProt P15692 34-135); assay: SPR
T5 chain: T1 sequence (looked up) with K41A

[7] = target: T6, hVEGF-A Y21A (human, UniProt P15692 34-135); assay: SPR
T6 chain: T1 sequence (looked up) with Y14A

[8] = target: T7, hVEGF-A Q89A (human, UniProt P15692 34-135); assay: SPR
T7 chain: T1 sequence (looked up) with Q82A

[9] = target: T1, hVEGF-A (8-109); assay: SPR
Experimental: Depending on the format of the assay either a streptavidin sensor (SA) or a dextran-coated (CM5) sensor was utilized as described below.
Reaction was then quenched by addition of 10 molar excess of Glycine pH 8.0 and the sample was buffer exchanged into PBS using an Amicon 0.5 mL 3000 MWCO ultra-centrifugal filters (EMD Millipore). The biotinylation state of the protein was verified by LC-MS analysis. Biotinylated VEGF-A was then captured on the surface until a resonance unit (RU) signal of about −0.400. For immobilization of VEGF-A on CM5 sensor, the surface was first activated with a mixture of N-ethyl-N′-(3-dimethylaminopropyl)carbodiimide hydrochloride and N-hydroxysuccinimide (EDC/NHS) according to the supplier instructions. VEGF-A was then diluted into coupling buffer (0.1 M Acetate Buffer, pH 5.0) and injected until the signal reached about −0.400 RU followed by a wash with 1 M ethanolamine pH 8.0 to quench remaining activated sites.

[10] = target: T8, human VEGF-A (human), P15692; assay: SPR
T8 chain: T1 sequence (looked up)

Sequence of LRP6 E1E2 protein (human) (O75581 20-630 limits assumed): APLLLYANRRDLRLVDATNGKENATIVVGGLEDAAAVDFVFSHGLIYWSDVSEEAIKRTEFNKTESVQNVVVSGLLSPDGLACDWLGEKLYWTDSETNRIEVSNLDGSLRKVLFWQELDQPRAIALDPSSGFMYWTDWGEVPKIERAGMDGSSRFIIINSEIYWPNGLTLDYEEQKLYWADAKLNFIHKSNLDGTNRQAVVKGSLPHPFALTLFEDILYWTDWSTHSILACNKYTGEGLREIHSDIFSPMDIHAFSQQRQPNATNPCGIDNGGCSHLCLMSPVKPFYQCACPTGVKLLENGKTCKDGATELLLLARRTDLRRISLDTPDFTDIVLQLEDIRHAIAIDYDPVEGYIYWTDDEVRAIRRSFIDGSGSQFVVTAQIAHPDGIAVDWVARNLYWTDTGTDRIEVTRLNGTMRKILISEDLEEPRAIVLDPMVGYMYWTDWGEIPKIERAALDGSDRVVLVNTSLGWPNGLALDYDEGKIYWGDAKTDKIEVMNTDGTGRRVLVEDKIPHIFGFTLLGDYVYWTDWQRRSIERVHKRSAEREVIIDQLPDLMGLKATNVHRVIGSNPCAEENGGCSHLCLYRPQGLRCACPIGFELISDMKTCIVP

B1: LRP6_CKP16 (designed binder)
chain: GCSRNSIKCKQDSDCLAGCVCASGSSCG
ELISA [1]: 3.36 | S/N [1]: 31.1

B2: VEGF_CKP7 (designed binder)
chain: GCQDPTFNWALYCKQDSDCLAGCVCQMYQSCG
ELISA [2]: 3.4 | S/N [2]: 54.5 | ELISA ([2]; record 2): 0.1 | S/N ([2]; record 2): 1.3 | Cellular Assay IC50, hVEGF-A (25 ng/ml) [3]: 18 µM | Cellular Assay IC50, mVEGF (50 ng/ml) [4]: 39 µM | Cellular Assay IC50, rVEGF (50 ng/ml) [5]: 7 µM

B3: LRP6_CKP20 (designed binder)
chain: GCENRTKGCKQDSDCLAGCVCGFRGTCG
ELISA [1]: 3.1 | S/N [1]: 38.7

B4: LRP6_CKP15 (designed binder)
chain: GCNRIRNSCKQDSDCLAGCVCGRGDYCG
ELISA [1]: 2.03 | S/N [1]: 26.3

B5: VEGF_CKP12 (designed binder)
chain: GCTTPWPPHEIMCKQDSDCLAGCVCGPNGFCG
ELISA [2]: 3.5 | S/N [2]: 55.2 | Cellular Assay IC50, hVEGF-A (25 ng/ml) [3]: 102 µM | Cellular Assay IC50, mVEGF (50 ng/ml) [4]: 243 µM | Cellular Assay IC50, rVEGF (50 ng/ml) [5]: 1220 µM

B6: VEGF_CKP9.54.90.13 (designed binder)
chain: GCNIMLPFWGCGRDFECMNQCICQYYQSCG
Cellular IC50 [3]: 0.00096 µM | fold improvement relative to variant 9.54.90 (cellular IC50) [3]: 1.41 fold

B7: VEGF_CKP9.54.90 (designed binder)
chain: GCNIMLPFWGCGRDFECLAGCVCQYYQSCG
Kd [6]: 0.00019 µM | Kd [7]: 0.0035 µM | Kd [8]: 0.0088 µM

B8: VEGF_CKP9.54 (designed binder)
chain: GCNIMLPFWGCKQDSDCLAGCVCQYYQSCG
notes: also called EM54
Kd [6]: 0.022 µM | Kd [7]: 0.317 µM | Kd [8]: 1.88 µM

B9: VEGF_CKP9.54.90 F7Y Δ2G (designed binder)
chain: CNIMLPYWGCGRDFECLAGCVCQYYQSC
Cellular IC50 [3]: 0.00301 µM | fold improvement relative to variant 9.54.90 (cellular IC50) [3]: 0.44 fold

B10: VEGF_CKP9.54.90.67 (designed binder)
chain: B6 chain with N19E
Cellular IC50 [3]: 0.0011 µM | fold improvement relative to variant 9.54.90 (cellular IC50) [3]: 1.23 fold | Cellular IC50 ([3]; record 2): 0.001 µM

B11: VEGF_CKP10 (designed binder)
chain: GCRDLDVKWDCKQDSDCLAGCFCQYYSSCG
ELISA [2]: 3.2 | S/N [2]: 43.7 | Cellular Assay IC50, hVEGF-A (25 ng/ml) [3]: 45 µM | Cellular Assay IC50, rVEGF (50 ng/ml) [5]: 18 µM

B12: VEGF_CKP9.63.27 (designed binder)
chain: GCDVMQPYWGCGRDMDCLAGCVCHWYNSCG
notes: also called L2.9.63.27
Kd [9]: 0.0014 µM

B13: VEGF_CKP9.54.90.62 (designed binder)
chain: B6 chain with M18F, N19Y, Q20E
Cellular IC50 [3]: 0.00092 µM | fold improvement relative to variant 9.54.90 (cellular IC50) [3]: 1.47 fold

B14: LRP6_CKP19 (designed binder)
chain: GCSNRVKVRACKQDSDCLAGCVCGPNGFCG
ELISA [1]: 3.27 | S/N [1]: 42

B15: VEGF_CKP9.63.1 (designed binder)
chain: GCDVMQPYWGCGENFLCLAGCVCHWYNSCG
notes: also called L2.9.63.1
Kd [9]: 0.0058 µM

B16: VEGF_CKP9.63.69 (designed binder)
chain: B15 chain with N14S, F15L, L16S
notes: also called L2.9.63.69
Kd [9]: 0.0069 µM

B17: LRP6_CKP22 (designed binder)
chain: GCANRVKRTSCKQDSDCLAGCVCGPNGFCG
ELISA [1]: 3.43 | S/N [1]: 42.9

B18: VEGF_CKP9.54.90.25 (designed binder)
chain: B6 chain with N19Q, Q20T
Cellular IC50 [3]: 0.00126 µM | fold improvement relative to variant 9.54.90 (cellular IC50) [3]: 1.07 fold

B19: VEGF_CKP9.63.12.12 (designed binder)
chain: GCDVMQPYWGCGPDIDCLSNCICHWYNSCG
Cellular IC50 [3]: 0.00056 µM | fold improvement relative to variant 9.54.90 (cellular IC50) [3]: 2.41 fold | Cellular IC50 ([3]; record 2): 0.0005 µM

B20: VEGF_CKP9.54.90.44 (designed binder)
chain: B6 chain with M18F, N19I, Q20N
Cellular IC50 [3]: 0.00116 µM | fold improvement relative to variant 9.54.90 (cellular IC50) [3]: 1.16 fold

B21: LRP6_CKP18 (designed binder)
chain: GCRANRVSGRCKQDSDCLAGCVCGPNGFCG
ELISA [1]: 1.67 | S/N [1]: 18.3

B22: VEGF_CKP9.63 (designed binder)
chain: B12 chain with G12K, R13Q, M15S
notes: also called EM63
Kd [6]: 0.0284 µM | Kd [7]: 0.585 µM | Kd [8]: 2 µM

B23: VEGF_CKP9.63.44 (designed binder)
chain: B12 chain with G12E, R13M, M15F
notes: also called L2.9.63.44
Kd [9]: 0.0012 µM

B24: VEGF_CKP9 (designed binder)
chain: GCQLMQPFWGCKQDSDCLAGCVCHWYQSCG
ELISA [2]: 0.4 | S/N [2]: 7.4 | ELISA ([2]; record 2): 0.9 | S/N ([2]; record 2): 11.6 | ELISA ([2]; record 3): 3.3 | S/N ([2]; record 3): 36 | Cellular Assay IC50, hVEGF-A (25 ng/ml) [3]: 12 µM | Cellular Assay IC50, mVEGF (50 ng/ml) [4]: 10 µM | Cellular Assay IC50, rVEGF (50 ng/ml) [5]: 1 µM

B25: VEGF_CKP9.63.12 (designed binder)
chain: B12 chain with R13P, M15I
notes: also called L2.9.63.12
Kd [6]: 0.00033 µM | Kd [7]: 0.00984 µM | Kd [8]: 0.0365 µM

B26: VEGF_CKP9.54.90-Alkyn (designed binder)
chain: B7 chain
modifications: not checked
Kd [10]: 0.00049 µM

B27: LRP6_CKP13 (designed binder)
chain: GCVNSVKRCKQDSDCLAGCVCSRGVNCG
ELISA [1]: 3.28 | S/N [1]: 37.8

B28: LRP6_CKP17 (designed binder)
chain: GCSNYVKRCKQDSDCLAGCVCSPGGRCG
ELISA [1]: 3.09 | S/N [1]: 35.9

B29: VEGF_CKP9.54.90.12 (designed binder)
chain: B6 chain with N19S, Q20D
Cellular IC50 [3]: 0.0012 µM | fold improvement relative to variant 9.54.90 (cellular IC50) [3]: 1.12 fold

B30: VEGF_CKP6 (designed binder)
chain: GCPTTRFKQYCKQDSDCLAGCVCGPNGFCG
ELISA [2]: 3.5 | S/N [2]: 51.9 | Cellular Assay IC50, hVEGF-A (25 ng/ml) [3]: 47 µM | Cellular Assay IC50, mVEGF (50 ng/ml) [4]: 169 µM | Cellular Assay IC50, rVEGF (50 ng/ml) [5]: 711 µM

B31: LRP6_CKP14 (designed binder)
chain: GCGSNKIRPRCKQDSDCLAGCVCGPNDFCG
ELISA [1]: 3.18 | S/N [1]: 43.5

B32: VEGF_CKP9.54.90.13.F8Y (designed binder)
chain: B6 chain with F8Y
Cellular IC50 [3]: 0.00202 µM | fold improvement relative to variant 9.54.90 (cellular IC50) [3]: 0.67 fold

B33: VEGF_CKP9.54.90.62.F8Y (designed binder)
chain: GCNIMLPYWGCGRDFECFYECICQYYQSCG
Cellular IC50 [3]: 0.00114 µM | fold improvement relative to variant 9.54.90 (cellular IC50) [3]: 1.18 fold

B34: LRP6_CKP21 (designed binder)
chain: GCGNKIRACKQDSDCLAGCVCRDRVGCG
ELISA [1]: 2.8 | S/N [1]: 33.7
